In IntAct's records for PubMed 29892012:

B1: Abl interactor 2 (Homo sapiens), Q9NYB9 (parent)
chain: MAELQMLLEEEIPGGRRALFDSYTNLERVADYCENNYIQSADKQRALEETKAYTTQSLASVAYLINTLANNVLQMLDIQASQLRRMESSINHISQTVDIHKEKVARREIGILTTNKNTSRTHKIIAPANLERPVRYIRKPIDYTILDDIGHGVKWLLRFKVSTQNMKMGGLPRTTPPTQKPPSPPMSGKGTLGRHSPYRTLEPVRPPVVPNDYVPSPTRNMAPSQQSPVRTASVNQRNRTYSSSGSSGGSHPSSRSSSRENSGSGSVGVPIAVPTPSPPSVFPAPAGSAGTPPLPATSASAPAPLVPATVPSSTAPNAAAGGAPNLADGFTSPTPPVVSSTPPTGHPVQFYSMNRPASRHTPPTIGGSLPYRRPPSITSQTSLQNQMNGGPFYSQNPVSDTPPPPPPVEEPVFDESPPPPPPPEDYEEEEAAVVEYSDPYAEEDPPWAPRSYLEKVVAIYDYTKDKEDELSFQEGAIIYVIKKNDDGWYEGVMNGVTGLFPGNYVESIMHYSE
partner: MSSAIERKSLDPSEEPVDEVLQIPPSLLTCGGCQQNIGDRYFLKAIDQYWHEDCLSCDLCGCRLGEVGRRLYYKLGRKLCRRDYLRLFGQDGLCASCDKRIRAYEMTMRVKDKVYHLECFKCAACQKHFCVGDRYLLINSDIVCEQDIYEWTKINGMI
B2: Late cornified envelope protein 1B (Homo sapiens), Q5T7P3 (parent)
chain: MSCQQNQQQCQPPPKCIPKCPPKCLTPRCPPKCPPKCPPVSSCCSVSSGGCCGSSSGGSCGSSSGGCCSSGGGGCCLSHHRRRRSHCHRPQSSGCCSQPSGGSSCCGGGSGQHSGGCC
partner: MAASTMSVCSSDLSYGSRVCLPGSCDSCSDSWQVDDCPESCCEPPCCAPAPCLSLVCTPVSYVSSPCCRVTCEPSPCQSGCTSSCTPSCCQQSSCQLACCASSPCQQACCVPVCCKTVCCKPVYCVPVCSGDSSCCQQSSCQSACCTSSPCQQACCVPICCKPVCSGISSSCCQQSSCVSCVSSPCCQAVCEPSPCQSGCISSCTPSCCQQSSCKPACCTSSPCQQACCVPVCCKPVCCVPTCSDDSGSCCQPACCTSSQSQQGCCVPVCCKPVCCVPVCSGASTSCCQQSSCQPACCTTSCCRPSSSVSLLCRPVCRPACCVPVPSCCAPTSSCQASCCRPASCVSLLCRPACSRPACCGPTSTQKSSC
B3: Pre-B-cell leukemia transcription factor-interacting protein 1 (Homo sapiens), Q96AQ6 (parent)
chain: MASCPDSDNSWVLAGSESLPVETLGPASRMDPESERALQAPHSPSKTDGKELAGTMDGEGTLFQTESPQSGSILTEETEVKGTLEGDVCGVEPPGPGDTVVQGDLQETTVVTGLGPDTQDLEGQSPPQSLPSTPKAAWIREEGRCSSSDDDTDVDMEGLRRRRGREAGPPQPMVPLAVENQAGGEGAGGELGISLNMCLLGALVLLGLGVLLFSGGLSESETGPMEEVERQVLPDPEVLEAVGDRQDGLREQLQAPVPPDSVPSLQNMGLLLDKLAKENQDIRLLQAQLQAQKEELQSLMHQPKGLEEENAQLRGALQQGEAFQRALESELQQLRARLQGLEADCVRGPDGVCLSGGRGPQGDKAIREQGPREQEPELSFLKQKEQLEAEAQALRQELERQRRLLGSVQQDLERSLQDASRGDPAHAGLAELGHRLAQKLQGLENWGQDPGVSANASKAWHQKSHFQNSREWSGKEKWWDGQRDRKAEHWKHKKEESGRERKKNWGGQEDREPAGRWKEGRPRVEESGSKKEGKRQGPKEPPRKSGSFHSSGEKQKQPRWREGTKDSHDPLPSWAELLRPKYRAPQGCSGVDECARQEGLTFFGTELAPVRQQELASLLRTYLARLPWAGQLTKELPLSPAFFGEDGIFRHDRLRFRDFVDALEDSLEEVAVQQTGDDDEVDDFEDFIFSHFFGDKALKKRSGKKDKHSQSPRAAGPREGHSHSHHHHHRG
B4: Abl interactor 2 (Homo sapiens), Q9NYB9 (parent)
chain: B1 chain
partner: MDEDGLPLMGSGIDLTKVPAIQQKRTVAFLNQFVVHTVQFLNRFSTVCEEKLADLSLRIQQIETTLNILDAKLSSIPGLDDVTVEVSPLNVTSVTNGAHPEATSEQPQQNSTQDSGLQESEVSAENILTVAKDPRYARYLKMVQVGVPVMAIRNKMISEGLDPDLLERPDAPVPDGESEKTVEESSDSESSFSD
B5: Late cornified envelope protein 1B (Homo sapiens), Q5T7P3 (parent)
chain: B2 chain
partner: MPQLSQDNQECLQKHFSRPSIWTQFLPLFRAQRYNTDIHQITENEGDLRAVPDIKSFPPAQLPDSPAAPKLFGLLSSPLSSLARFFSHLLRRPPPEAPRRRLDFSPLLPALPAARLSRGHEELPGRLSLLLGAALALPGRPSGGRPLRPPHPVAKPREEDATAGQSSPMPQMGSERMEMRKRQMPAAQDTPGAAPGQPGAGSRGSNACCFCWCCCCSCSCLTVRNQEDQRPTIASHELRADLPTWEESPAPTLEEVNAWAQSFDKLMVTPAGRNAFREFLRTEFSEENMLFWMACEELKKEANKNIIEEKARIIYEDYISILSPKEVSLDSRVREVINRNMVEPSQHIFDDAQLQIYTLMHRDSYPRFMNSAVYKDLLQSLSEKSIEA

Variants of: B1
Conditions: with rbtn2_human LMO2, P25791

Row | effect of a mutation on the interaction | Variant
1 | with no effect | R373C

Variants of: B2
Conditions: with kr107_human KRTAP10-7, P60409

Row | effect of a mutation on the interaction | Variant
2 | disrupting interaction strength | MSCQQNQQQCQPPPKYIPKCPPKCLTPRCPPKCPPKCPPVSSCCSVSSGGCCGSSSGGSCGSSSGGCCSSGGGGCCLSHHRRRRSHCHRPQSSGCCSQPSGGSSCCGGGSGQHSGGCC

Variants of: B3
Conditions: with mdfi_human MDFI

Row | effect of a mutation on the interaction | Variant
3 | with no effect | V238M

Variants of: B4
Conditions: with wasc3_human WASHC3, Q9Y3C0

Row | effect of a mutation on the interaction | Variant
4 | with no effect | E202K

Variants of: B4
Conditions: with wasc3_human WASHC3, Q9Y3C0
Remark: another data set of the same source

Row | effect of a mutation on the interaction | Variant
5 | with no effect | R373C

Variants of: B5
Conditions: with rgs20_human RGS20, O76081

Row | effect of a mutation on the interaction | Variant
6 | with no effect | MSCQQNQQQCQPPPKYIPKCPPKCLTPRCPPKCPPKCPPVSSCCSVSSGGCCGSSSGGSCGSSSGGCCSSGGGGCCLSHHRRRRSHCHRPQSSGCCSQPSGGSSCCGGGSGQHSGGCC
